Results reported in the DeepSol protein solubility set.

Experiment: soluble on expression in E. coli; label from the status in PepcDB or PDB records

| Sequence | soluble on expression in E. coli |
| --- | --- |
| MSLKIIDGNIASPLGFSADGLHAGFKKRKKDFGWIVSEVPASVAGVYTTNKVIAAPLIVTRESVKKAQKMQALVVNSGVANSCTGLQGMEDAYTMQKWTATKLKIAPELVGVASTGVIGDLMPMDTLQKGLSKLVVNGNSDDFAQAILTTDTKVKTVAVTEQFGRDEVTMAGVAKGSGMIHPNMATMLAFITCDAVISSETLQLALSQNVETTFNQITVDGDTSTNDMVLVLSNGCTLNKEILPDTPEFDKFSAMLHFVMQELAKKIAKDGEGATKLIEVEVINAPNSLDACMMAKSVVGSSLVKTAIFGEDPNWGRILAAVGYAGVDVPVDNIDIYLADIPVMLASSPVDFDEEDMQDVMRADTIKIIVDLHAGDSVGKAWGCDLSYDYVKINALYRTEGHHHHHH | soluble |
| MSLKIKHEHIRMAMNAWAHPDGEKVPAAEITRAYFELGMTFPELYDDSHPEALARNTQKIFRWVEKDTPDAVEKIQALLPAIEKSMPPLLVARMRSHSSAYFRELVETRERLVRDADDFVAVAIAGFNQMNRGGPAGNIVAVHEGHHHHHH | soluble |
| MSLKIKVGLIFSGIACLFLTACVNQVKQNTTFENTLTQKYCGDDFFNQNLEKIKKNDDVIYTGLNAGLIARNCGDFNKSNVFFDAVEESYKYDVDLENVSPKAAKFIGTTLLNDNIVDYDGSLYERIMVNIYKALNYMEEDDYENARVEFNRVLMRQDKAKEYFAKEIEKNRADLDKAKEDKNYDKNMNENSKVIEAQYDNLFKEFDTTKNFINPYATYLASIFFFMDKDYRKAADLFREVAIIYPKNKTIKKEAKIFKEYATKIKVKKAKKYVFVVYENGFGVVKDEFALTLPFIVDKKIISTNIALQTLKKREASFANLNINGQNTNDFVDLDNIVATEFKINMPAMIAKALAQTIIKTTLNVAVANNDSTGGWLSLATAVATAATNKADVRSWRGLPKSIAIATIENDGNLEIKDPQGNILFQKSLDKNKNALVIVRSFAPYLPASVAIMEKEGHHHHHH | not soluble |
| MSLKILILGGTRFLGRAFVEKALNRGYEVTLFNRGTNKEIFPEVEQLIGDRNGDVSSLENRKWDVVVDTCGFSPHHIRNVGEVLKDNIEHYIFISSLSVYKDWIPHHIKEDYILQPEPTAEQIKAVENGEVSPYEYYGALKVLCEKEAEKYWPGRVLHVRAGLLSGMFDYTDRLPYWIGRVAKGGEVLVPGRKDRPVQIVDIKDVANWGLNMAENNKAGIFNVTGPNYDLTMEELLNTCKKVTNSDAEFVWIEESFMNEHKVQPWTEMPLWIPETFSLEGETKPWKGGFSISINSAIKAGLTFRRLEDTVMDVYVWMKSIEEWELKAGISGEREKELLEKWYQEGHHHHHH | soluble |
| MSLKIMIVEDDRIQATSLKLKLRQLGLDDVILAENGFAALELCNKVGIDLMFCDIRMPQMDGISLLSQLSLQAPKLGVVILSAVEDTILELTHNMCSLAGFAYVDRLPKPYEVEDLQRVVEGFQKQTEPETSHKPAITLTCDEIEQAFLHDHIFNYYQPQFDFRSGAMVGVEALVRYEHPTHGMLSPAVFLPLIEQCGLHEKLFLTVLEKSVSALASIGADLQLSVNISQRNLQHSICDPILAICERYGFPASKLTLEMTEHEVYNGTPTSLANLARLRMYGVGLSIDDFGTGYASLGQLAQLPFTELKIDRSFVHDLATNYKHQQLTNMCLLLAQSLGLHCVVEGVENEETWQYLRQLGVDTCQGYYAAKPMPIAQLSELYTKNRRQCLGEGHHHHHH | soluble |
| MSLKITAADVVVTSPGRNFVTLRITTEDGLTGLGDATLNGRELAVEAYLREHVAPLLLGRDAHAVEDTWQYLYRGAYWRRGPVTMAAVAAVDMALWDIKGKAAGMPVYQLLGGACRTGALAYGHASGRDIPELLDSVREHLADGFRAVRIQSGIPGLDSVYGVAASAAGDGDRYDYEPARRTGAAHPRPTEETWDTRAYLRHMPTVFEAVRHTFGPELPLLHDGHHRMTPIQAARLGKDLEPYDLFWLEDATPGEDQGALRLIREHTTTPLAIGEVFNSVHDYTTLLQERLIDYVRSAVTHTGGITAVRKLLDMAAVYGIKSGMHGPTDISPVGMAAALHLDLAVHNFGIQEYMRHAPDTLEVFRTSYRFEDGLLHPGEAPGLGVELDDGAAARFPYEPAYLPVNRLSDGTVHDWEGHHHHHH | not soluble |
| MSLKIYGVYRSRASRPLWLLAELDLPFEHVPVIQANRVAHPHGPEAPLNTASAAYLAVNPLGQIPCLEEEGLILTESLAITLHIARTQGGQLGPRSEPEDALMVSWSLFAATAVEPPALEIQLIQRSGGGTSPEGQAAIAIAAERLRRPLARLERHFAAEDYLVGGRFTVADLNLAETLRYGQAHPALLEPFPAVAAWLDRCQSRPAFRLMMERRAAEGHHHHHH | soluble |
| MSLKKIANELGLSSTTVSRALNGYDDVAAETRERIIDAAKRLGYQPNSLARRLKMGRTDAIALAYPSRPRVLNNSTFLEMISWIGIELGKRGLDLLLIPDEPGEKYQSLIHLVETRRVDALIVAHTQPEDFRLQYLQKQNFPFLALGRSHLPKPYAWFDFDNHAGASLAVKRLLELGHQRIAFVSTDARISYVDQRLQGYVQTMSEAGLMPLAGYLQKADPTRPGGYLAASRLLALEVPPTAIITDCNMLGDGVASALDKAGLLGGEGISLIAYDGLPDDSLLDIAVTPIVQNTRTSVGKQIASMICDLLGGKDPKELQVLWQPEIGEGETEGHHHHHH | soluble |
| MSLKKILIIDQQDFSRIELKNFLDSEYLVIESKNEKEALEQIDHHHPDLVILDMDIIGENSPNLCLKLKRSKGLKNVPLILLFSSEHKEAIVNGLHSGADDYLTKPFNRNDLLSRIEIHLRTQNYYSDLRKNDLLMLLELTETISVTRNPRRILSIIVERLIKTIDVSRCSIIGINDFGELLVLASSDLPENQEIKLDLKKYPEIEKALETQRPVVLQDITNSALMKPVKKHIEALSDNAVFVVPIIKKQNVIGTFFLRTACLQKGGITDRIFKLCQVIASISGNALENAIIFESMETNKKLLEDLSVRDSLTKLYNHQHYHSRLEDEFSRAQRYNLDLSCIFLDIDNFKNINDRYGHLAGDMVLRQIARLISQVIRKSDISARYGGEEFAICLPNTGGVAANELAERLLVMIRELSIQQLKGEHVTVSIGTSTYSNHNVASYSELLHLADDAMYEAKKSGKNRFCCSTAMEGHHHHHH | soluble |
| MSLKKLITANDIREAHARGEQAMSVVLRASIITPEAREVADLLGFTITECDESIPVTASVPASVPADKTESQRIRETIIAQLPEGQFTESLVAQLMEKVMKEKQSLEQGAMQPSFKSVTGKGGIKVIDGSSVKFGRFDGAEPHCVGLTDLVTGDDGSSMAAGFMQWENAFFPWTLNYDEIDMVLEGELHVRHEGQTMIAKAGDVMFIPKGSSIEFGTTSSVKFLYVAWPANWQSLEGGSHHHHHH | soluble |
| MSLKKMSIKVPGKLFFAGEYSVTKEGNLALITTIETNFEVRISATTGKSIFKTNVGLSDFEFSLSKIEFTKENPWNFALTALKNTLSAADSFEKKSVSKILSSSPEISLEIVSDLGFGENKKGYGSSASVVCGLVNAVNQFFDFQLSLEKRFEIAAKTHFEVQGSGSMGDIAAIMYGGSVFYQNHKRVIPLEIPWATYVVQTGKAAKTSEKIKIKLSDEFYQASNELVIELATAIDIQDFALFKEKLSENQLLLLENIPEGYMTKELAIALNLLNSYPEFAAKISGAGFGENIILFAQNTQAIAEVQNKLSEYGINLEKFKVAQKNNEGHHHHHH | soluble |
| MSLKLFPQFDGISLKDRFFLLESFKVDVLANNVYYTESSLVPFLSKMKGVLARDGNIKHYLAEGKRICVLGDVHGSPMDVSAFYDLCMLKDVQLQCFQEVGDDRGSQFTMDLSSVYVFLGDYVDRGSRGLACVLFIYVLKYLYPRNVLLLRGNHECDAMNRIYGFTKEIYKYYGSHSPIYQAIQDTFAAIPYFFRLIYLPQSLCRALERFCNRVIPSASSSTRWTNSEIMCLASMVSSVTSWAGQAGATNEAKLDDLADSQEAHMLKCRLEEESLTIFCCHGGPPCVYTEYGRQLDLYLGIDSYENILQRSLTIVDPLAGELTWNDPAPHRFKSPSTLYEPSQRRLGYRYSYDLFRTWCKHTGVDLVLRGHEVALDGVHQDFQYAFEPKQLGGPNQELEYWFSVSTLRETPRHFTVFSSSFYEHLTNHGAAAIIRFEVPVDGVAPALVIRCFTLSEGHHHHHH | not soluble |
| MSLKLHKGIKEYECKECHRRFAQKVNMLKHCKRHTGIKDFMCELCGKTFSERNTMETHKLIHTVGKQWTCSVCDKKYVTEYMLQKHVQLTHDKVEAQSCQLCGTKVSTRASMSRHMRRKHPEVLAVRIDEGHHHHHH | soluble |
| MSLKLIVKIGLIVLLLMFNYQGVDADVVSSAIDRYATTTEHQDNMASDHGTLDTMSFTHSLLTGQQQVLAKLMPDDLRIRRAEELQQNFLKILIGRFSLREEILATDRAKIFPSNPIHCVSPACHYFVFTLRRILIEGHHHHHH | not soluble |
| MSLKMKPPVEKNEYYDVTFEDLTHEGAGVAKVQGFPIFVPNALPEEKAQIKVTRVKKGFAFGRLIELKEESPHRTDAPCPIYKQCGGCQLQHMTYEGQLLFKQKQVKDVLERIGKLDLSKVTVHPTLGMEDPWNYRNKAQVPVGEREGGLVAGFYQQRSHDIIDMSACLIQQSKNDEAVQAVKDICANYGVKAYNEERHKGWLRHIMVRYGVVTGEMMIVFITRTSDFPHKAKIIEDITAQFPHVKSIVQNINPNKTNVIFGNETNVIWGEEYIYDLIGDVKFAISARSFYQVNPEQTKVLYDKALEYAELQGEETVIDAYCGIGTISLFLAKQAKKVYGVEIVPEAIEDAKRNAELNGNTNAEFAVGEAETVIPKWYEEGITADTLVVDPPRKGCDEALLRTIVEMKPKRVVYVSCNPGTLARDLRVLEDGGYVTREVQPVDMFPHTNHVECCVLIKLKEEGHHHHHH | soluble |
| MSLKMTNNTVLITGGSAGIGLELAKRLLELGNEVIICGRSEARLAEAKQQLPNIHTKQCDVADRSQREALYEWALKEYPNLNVLVNNAGIQKEIDFKKGTEELFVDGDEIELNFQAPVHLSALFTPHLMKQPEAAIVQVTSGLAFNPLAVYPVYCATKAALHSFSLTLRHHVRDTSVEVIEMAPPMVDTGLNQKSRDKQGLTYRGISSEEYVQYFLDGLKEGKQEITNERVEGLRDATRADYDRLFEQMNTQEGHHHHHH | soluble |
| MSLKNNIYGNVPCFLNSKNLNQTNTLDTDVIVYGAPFEGESTWGDYTGVELGPKQIRVCSARYSQYLPELNHIDISEHLTMGDVGDVPFVAHDNKQSYDNISDFAKKLWDSGKFLVGFGGEHGVTYPILKALTETGKKVGIIHLDAHYDNMPDYEGEPYARNTPFMRLYETDGIRNESIIHTGIHGPRNKPETGRFAQEAGAVTLTINDIRAAKDLKTYAHEIYAQASKDVDVVYLTICSDVLDFAFNPGGPVDGNGLSSYELLTMIHEFGKLGLGGMDYVEVYPMMDANQNSAHFVSTAVLYVLAGHVAYLNQTEGHHHHHH | soluble |
| MSLKNTPPGFPSHSSATLAFALAIAAGGAQAAGFVEDAKGTLTLRNFFINRDFKGDNATRSKAEEWTQNFLLDLKSGYTEGPLGLGLDVLGLYSVKLDGGKGTGGTQLLPLDHDGKPADRFGRLAVAGKLKLSETELRAGEWALVLPILRSDDGRSLPQTFRGSMLTSKEIENLTLYAGHITGNSPRDDGSMEEMTLFGTSPYTSDRTSDDFDFGGLEYSFNGKRTLVGVWYARLKDIYKQRYIQLQHSQPLGGDWTLGANIGYFDGEDDGEALEGHLDNKALSGLFSLRTGAHTFYLGLQRISGDSKWLRVNGTSGGTLANDSYNSSYDNARERSWQLRYDYNFAALGMPGLTFMTRYISGKNIHVGAVDDGEEWGRESEVAYVVQSGAAKNLTLRWRNTTMRRDYGSDNQFNEQRLIVQYPLSLFEGHHHHHH | soluble |
